This is an account of results in PMC10148413, “Caf1 regulates the histone methyltransferase activity of Ash1 by sensing unmodified histone H3” (Epigenetics & Chromatin, 2023).

Experiment [1] addresses T1, Fly Caf1 H3 binding pocket mutant (E235Q/D252K/E279Q) (fly, UniProt Q24572 1-430, E235Q | D252K | E279Q).
T1 construct: In the functional row this mutant stood as a subunit of the AMC complex (AMC mut); source: Sf9 cells (baculovirus), purified (Ni-NTA, HiTrap Q HP, Superdex 200); not shown: His6, N-terminal, cleaved
The experiment in a line: pull-down; GST-Ash1 fragments held on GST resin; 200 µL of 0.1 mg/mL purified Caf1 added for 1 h; 150 mM NaCl, 50 mM Tris-HCl (8.0); bound proteins analysed by SDS-PAGE. The following applies: both partners purified.

Another experiment deals with T2, Fly Caf1 wild-type (fly, UniProt Q24572 1-430).
T2 construct: Caf1 (p55/Nurf55), fly; The same paragraph speaks of 'full-length Caf1' for the AMC co-expression; probably full length here too; also called p55; Nurf55; source: Sf9 cells (baculovirus), purified (Ni-NTA, HiTrap Q HP, Superdex 200); not shown: His6, N-terminal, cleaved
The description is as above. The following applies: both partners purified.

T1 sequence (Q24572 whole entry E235Q/D252K/E279Q): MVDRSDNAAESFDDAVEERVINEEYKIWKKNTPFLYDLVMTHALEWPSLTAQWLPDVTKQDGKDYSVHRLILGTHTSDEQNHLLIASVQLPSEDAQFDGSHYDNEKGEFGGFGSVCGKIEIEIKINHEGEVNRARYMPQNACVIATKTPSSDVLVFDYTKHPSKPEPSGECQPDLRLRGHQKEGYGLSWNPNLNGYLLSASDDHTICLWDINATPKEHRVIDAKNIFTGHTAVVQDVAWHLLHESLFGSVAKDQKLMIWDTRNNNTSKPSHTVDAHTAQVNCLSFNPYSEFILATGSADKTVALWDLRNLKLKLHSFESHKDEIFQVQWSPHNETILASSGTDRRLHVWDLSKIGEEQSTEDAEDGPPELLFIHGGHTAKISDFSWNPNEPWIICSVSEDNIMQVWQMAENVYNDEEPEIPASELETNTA
T2 sequence (Q24572 whole entry): as the sequence (Q24572 whole entry E235Q/D252K/E279Q) above, with Q235E, K252D, Q279E counted along it

B1: GST-CBM (Ash1 Caf1 Binding Motif, 1582–1616) (domain or fragment, fly, UniProt Q9VW15 1582-1616, looked up)
chain: AKLQPLSEKEKKLVRQFNTFLVRNFEKIRRCKAKR
notes: Vector pGEX-4T-1; also called Ash1_C1.6; Ash1_CBM
Take B1: the binding result (in experiment [1]; in the experiment with Fly Caf1 wild-type) was “binds” throughout.
